Where two headings read alike, the source gives them in different places.
What was measured:
[1] = biological target: T1, rPdxR (Sco1417) (Streptomyces coelicolor A3(2) M145) (UniProt Q9RKX6); assay: competition
T1 sequence: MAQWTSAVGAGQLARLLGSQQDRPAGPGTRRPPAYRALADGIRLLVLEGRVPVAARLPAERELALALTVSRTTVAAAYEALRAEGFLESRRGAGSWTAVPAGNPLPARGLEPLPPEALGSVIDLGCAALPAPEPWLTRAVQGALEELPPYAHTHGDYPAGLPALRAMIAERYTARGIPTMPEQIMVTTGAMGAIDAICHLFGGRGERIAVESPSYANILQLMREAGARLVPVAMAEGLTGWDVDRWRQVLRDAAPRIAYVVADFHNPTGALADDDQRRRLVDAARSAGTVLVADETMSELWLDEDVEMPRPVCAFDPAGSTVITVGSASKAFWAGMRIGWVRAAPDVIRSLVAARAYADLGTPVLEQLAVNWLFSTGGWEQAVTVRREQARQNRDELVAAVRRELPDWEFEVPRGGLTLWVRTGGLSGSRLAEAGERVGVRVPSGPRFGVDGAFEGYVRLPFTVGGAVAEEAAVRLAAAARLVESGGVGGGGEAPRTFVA

rPdxR (Sco1417) [2] = biological target: T2, rPdxR (Sco1417) (Streptomyces coelicolor A3(2) M145, UniProt Q9RKX6); assay: EMSA
T2 sequence: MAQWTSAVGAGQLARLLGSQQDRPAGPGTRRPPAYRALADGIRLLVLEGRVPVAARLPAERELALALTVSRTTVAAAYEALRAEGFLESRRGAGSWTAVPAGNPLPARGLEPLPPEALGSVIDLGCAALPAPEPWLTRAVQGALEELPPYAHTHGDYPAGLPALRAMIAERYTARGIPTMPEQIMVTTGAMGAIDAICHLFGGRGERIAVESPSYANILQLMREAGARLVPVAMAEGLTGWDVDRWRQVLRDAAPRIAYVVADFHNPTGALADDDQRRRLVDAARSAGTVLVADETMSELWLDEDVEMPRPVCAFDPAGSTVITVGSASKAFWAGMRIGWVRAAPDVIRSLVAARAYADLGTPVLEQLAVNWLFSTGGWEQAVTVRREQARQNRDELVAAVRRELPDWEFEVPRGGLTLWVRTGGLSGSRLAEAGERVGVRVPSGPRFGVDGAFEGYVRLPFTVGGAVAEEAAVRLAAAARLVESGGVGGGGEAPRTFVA

rPdxR (Sco1417) [3] = biological target: T2, rPdxR (Sco1417); assay: EMSA; remark: listed apart in the source

Molecule: ACTGCGCCATGGAAATCAGTCCACCTTCCCCAAATTGGCCATGGTTGACTCTTCTTCTGAAGCCACAGGGTGTCATGTGGCAGTCCACTACCACCACCCCAGGGGGCACTTCTTGTCCAGGCAGTCCAGACAGTCGAGGCAATCCGGGCAGTCCGGATGGTCCGGGCGACTCGCGCGGCGGCTGACGCAGCTCTACGGCGGTCTCGTCCTGTACGGAGCGAGTTCGGCGCTGCTGGTCAGGTCCGGGCTCGGCCTCGAACCGTGGAACGTGCTGCACCAG (double strand) [pdxRp]
- binding [1]: binds

Molecule: TGCTGGACACGGGTACCTCACTGGGGAGAAGGGGGGTTGTGCAGCAACGAGGAAACGTGAGGTGAGCAGGCCACAGCAAGGGCCAATGAGAAGGCGGTGGATCGTTTTCGTCCCCCGGGCGCTACGCCGCCCGCTCCACCAGGGCGGCCGGCGACTCGTCGTCCATCTCGAAGGCCAGCGGGAAGGGCGCGTGCCCGGCGAGGCGGAACCAGCGGACCTTGCGGTGCTCGCGCAGCCTGCGGGCCGCCCCCACCGCGTCGTTGTGGAAGCGGCGG (double strand) [pdxSTp]
- binding [1]: binds

B1: R1 (dsDNA)
DNA 1: TGGGGTGGTGGTAGTGGACTGCCACATGACACCCTGTGGCTTCAGAA
DNA 2: TTCTGAAGCCACAGGGTGTCATGTGGCAGTCCACTACCACCACCCCA
- binding result (rPdxR (Sco1417) [2]): binds

B2: R2 (dsDNA)
DNA 1: TCAACCATGGCCAATTTGGGGAAGGTGGACTGATTT
DNA 2: AAATCAGTCCACCTTCCCCAAATTGGCCATGGTTGA
- binding result (rPdxR (Sco1417) [2]): binds

B3: ST (dsDNA)
DNA 1: ACGAAAACGATCCACCGCCTTCTCATTGGCCCTTGCTGTGGCCTGCT
DNA 2: AGCAGGCCACAGCAAGGGCCAATGAGAAGGCGGTGGATCGTTTTCGT
- binding result (rPdxR (Sco1417) [2]): binds

B4: ST2 (dsDNA)
DNA 1: CTTCTCATTGGCCCTTGCTGTGGCCTGCTC
DNA 2: GAGCAGGCCACAGCAAGGGCCAATGAGAAG
- binding result (rPdxR (Sco1417) [2]): binds

B5: ST2a (dsDNA)
DNA 1: CTTCTCATTGGCCCTTGCTAAAACCTGCTC
DNA 2: GAGCAGGTTTTAGCAAGGGCCAATGAGAAG
- binding result (rPdxR (Sco1417) [3]): no binding

B6: ST2b (dsDNA)
DNA 1: CTTCTCAAAAACCCTTGCTGTGGCCTGCTC
DNA 2: GAGCAGGCCACAGCAAGGGTTTTTGAGAAG
- binding result (rPdxR (Sco1417) [3]): no binding

Reference: paper PMC12220430
